This is an account of results in publication PMC10514341, “Organisation of the orthobunyavirus tripodal spike and the structural changes induced by low pH and K^+ during entry” (Nature Communications, 2023).

This data set deals with the molecule itself. Nature of the data set: cryo-EM structure; cryo-electron tomography and subtomogram averaging (PEET, C3 symmetry) of glycoprotein spikes on purified BUNV virions, pH 7.3/no K+, 2 hr at 37 °C; tripod average ~16 Å, floor average ~13 Å (GS-FSC); X-ray head/stalk structures and an AlphaFold Gn-Gc model fitted into the maps.

B1: Bunyamwera virus (BUNV) glycoprotein Gc (natural protein)
chain: EEDCWKNEELKEDCVGPLIAPKDCTDKDHKTYLSEASLLATAKKITQVDAENVEILGKTMESAIRVIERQKTYHRMHLLEAVFLNKHCDYYKMFEHNSGYSQVKWRMMIKTQHFDICALQANSPFCAQCIADNSCAQGSWEFDTHMNSTYSSKVDNFKHDFSLFLRIFEAAFPGTAYVHLLTNIKEKKPYQAVSMIEKIKKKFPNNKLLIGYLDFGKYLLGLSHASTYELQQRQLDKLYQPTELTRSGGQQTSLANSVVGQATKECKKYKDVSCLSPRFGIPLEDLISCCDQPNYNIYKKPKKVYKAHDKEETWCINDQHCLVDFVPAEADTVEKLKPMKCWLVDPGKNDDVYSIAIKTCRVVDKGVCTVNSQKWNIIKCDSGPLYYSDHIPGEDTGNDIGHYCVSAGCKTDRYPINPDVVTDCVWEFTSRKSQYIGKISMQSLEDYEKALTDRLTHTLETYSFAPLENLPHIKPVYKYITAQGVENSDGIEGAFITASIPAAGGTSIGYNVRSKDGFPLLDLIVFVKSAVIKSTYNHIYDTGPTISINTKHDEHCTGQCPSNIEHEANWLTFSQERTSRWGCEEFGCLAVNTGCVFGSCQDVIRPETKVYRKAVDEVVILTVCITYPGHTFCTEINAIEPKITEEIELQFKTVDTKTLPYIVAVNNHKLYSGQINDLGTFGQMCGNVQKTNSSILGTGTPKFDYTCHGASRKDIIVRRCYNNNFDSCKLLKEETQLIFNDDHDTITVYNTNHLIGELAIKLILGDIQYKLFTETLDLQIDAKCVGCPDCFESYSCNFQIVSNIDTICSLEGPCDTFHNRISIKAMQQNYAVKLSCQKDPRPSGTFKICNREYTVVFHTVAKDDKIEINVGDQTSFIKEKDDRCKTWLCRVRDEGISVIFEPIKAFFGSYFSIFFYIIVVVVVGFLIIYIFMPMFMKLKEVLKANEKLYLQEIKQK
modifications: N-linked glycan at N624
notes: Glycoprotein Gc of Bunyamwera virus, cut from the M segment polyprotein (Gn-NSm-Gc); ectodomain 478-1382; head, stalk and floor (fusion domain) regions; membrane-anchored in the virion envelope; Native Gc in the envelope of purified virions; also called BUNV Gc
For the protein B1, the “stoichiometry N” value stood at 3.

B2: Bunyamwera virus (BUNV) glycoprotein Gn (natural protein, UniProt P04505 17-302, looked up)
chain: SPVITRCFHGGQLIAERKSQTSISEFCIKDDVSMLKSEIVYTKNDTGIFGHSKVFRHWTITDWKACNPVVTAGGSINVIEVDKNLNLVTRNYVCTGDCTITVDRKNAQIIFQTDKLNHFEVTGTTISTGWFKSKASVTLDRTCEHIKVSCGKKTLQFHACFKQHMSCVRFLHRSILPGSMAISICQNIELIIITILALCIFIIMIILTKTYICYVLIPVFMPIAFAYGWAYNRSCKKCTCCGLAYHPFTNCGSYCVCGSKFETSDRMRMHRESGLCQGFKSLRVAR
modifications: N-linked glycan at N60
notes: Glycoprotein Gn of Bunyamwera virus, cut from the M segment polyprotein (Gn-NSm-Gc); ectodomain 17-205; membrane-anchored in the virion envelope; Native Gn in the envelope of purified virions; also called BUNV Gn
On to B2, for which the “stoichiometry N” value came to 3.
